Experimental findings from US20170107294A1 (NORDLANDSSYKEHUSET HF, published 2017) are described below.

The target of one experiment is T1, human CD14 (human, UniProt P08571 20-345).
T1 construct: whole, on cells; also called CD14 on human monocytes
T1 sequence (looked up): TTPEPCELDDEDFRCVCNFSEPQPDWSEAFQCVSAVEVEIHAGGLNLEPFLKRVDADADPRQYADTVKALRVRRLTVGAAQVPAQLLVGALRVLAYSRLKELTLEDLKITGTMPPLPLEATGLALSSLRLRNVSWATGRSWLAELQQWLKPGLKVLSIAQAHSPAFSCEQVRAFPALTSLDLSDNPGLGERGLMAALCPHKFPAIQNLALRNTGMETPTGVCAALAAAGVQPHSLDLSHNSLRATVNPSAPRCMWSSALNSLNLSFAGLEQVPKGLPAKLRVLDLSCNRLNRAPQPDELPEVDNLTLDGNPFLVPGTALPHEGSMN
In words: flow cytometry, human whole blood, displacement of 18D11 mIgG1 from monocytes.

In experiment [1] the target is T2, human FcgRIIIa (allotype Val158) ectodomains fused to GST (human; Schistosoma japonicum, UniProt P08637 17-208).
T2 construct: extracellular domain; also called hFcgRIIIa; not shown: Schistosoma japonicum GST
In words: ELISA, coated Ab, GST-fused receptor. The protocol: (§1) Ninety-six-well plates (Nunc, Roskilde, Denmark) were coated with serial dilution of the Abs (6.0-0.09 mg/ml) and incubated overnight at 4° C. followed by washing three times with PBS/Tween (pH 7.4). The wells were blocked with 4% skimmed milk (Neogen Europe, Auchincruive, U.K.) for 1 h at room temperature and then washed in PBS/Tween (pH 6.0). Purified hFcRn-GST or pFcRn-GST (1 mg/ml) were diluted in 4% skimmed milk in PBS/Tween (pH 6.0) and preincubated with an HRP-conjugated anti-GST Ab (GE Healthcare U.K., Buckinghamshire, U.K.) diluted 1:5000 and added to the wells. The plates were incubated for 1 h at room temperature and washed with PBS/Tween (pH 6.0). Bound receptor was detected by adding 100 ml of 3,39,5,59-tetramethylbenzidine substrate (Calbiochem-Novabiochem, Nottingham, U.K.). The absorbance was measured at 450 nm using a Sunrise TECAN spectrophotometer. The assay described above was also performed using PBS/Tween (pH 7.4) in all steps. The same setup was used with GST-fused versions of hFcgRI, hFcgRIIa (allotype His131), hFcgRIIb, hFcgRIIIa (allotype Val158), and hFcgRIIIb (1 mg/ml each). In addition, a biotinylated human C1q (hC1 q; 4 mg/ml) preparation was incubated with the Abs and detected using ALP-conjugated streptavidin (GE Healthcare). Absorbance was measured at 405 nm.
In general terms: ELISA stands for enzyme-linked immunosorbent assay.

The target in experiment [2] is T3, human FcgRI ectodomains fused to GST (human; Schistosoma japonicum, UniProt P12314 16-292).
T3 construct: extracellular domain; also called hFcgRI; not shown: Schistosoma japonicum GST
In words: ELISA, coated Ab, GST-fused receptor. The protocol:
as §1

Experiment [3] has as its target T4, human FcgRIIIb ectodomains fused to GST (human; Schistosoma japonicum, UniProt O75015 17-200).
T4 construct: extracellular domain; also called hFcgRIIIb; not shown: Schistosoma japonicum GST
In words: ELISA, coated Ab, GST-fused receptor. The protocol: as §1

Experiment [4] addresses T5, human FcgRIIb ectodomains fused to GST (human; Schistosoma japonicum, UniProt P31994 43-217).
T5 construct: extracellular domain; also called hFcgRIIb; not shown: Schistosoma japonicum GST
T5 sequence (looked up): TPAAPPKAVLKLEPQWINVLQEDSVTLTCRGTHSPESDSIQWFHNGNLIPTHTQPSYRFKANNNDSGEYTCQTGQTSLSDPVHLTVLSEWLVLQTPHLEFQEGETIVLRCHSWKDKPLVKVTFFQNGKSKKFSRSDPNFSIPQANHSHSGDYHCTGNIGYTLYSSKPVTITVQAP
In words: ELISA, coated Ab, GST-fused receptor. The protocol:
as §1

Experiment [5] concerns the target T6, human C1q (hC1q), biotinylated (human, UniProt P02745 23-245; P02746 28-253; P02747 29-245, biotinylated).
T6 construct: also called complement component C1q
In words: ELISA, coated Ab, biotinylated hC1q. The protocol:
as §1

T6 sequence (P02745 23-245 limits assumed, chain 1 of 3): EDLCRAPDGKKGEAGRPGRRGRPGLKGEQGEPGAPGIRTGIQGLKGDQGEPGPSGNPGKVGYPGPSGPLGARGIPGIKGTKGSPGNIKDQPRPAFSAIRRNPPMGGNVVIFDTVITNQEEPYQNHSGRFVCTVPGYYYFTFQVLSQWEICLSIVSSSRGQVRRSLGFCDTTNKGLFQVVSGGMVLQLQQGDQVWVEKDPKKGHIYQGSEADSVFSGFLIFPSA
T6 sequence (P02746 28-253 limits assumed, chain 2 of 3): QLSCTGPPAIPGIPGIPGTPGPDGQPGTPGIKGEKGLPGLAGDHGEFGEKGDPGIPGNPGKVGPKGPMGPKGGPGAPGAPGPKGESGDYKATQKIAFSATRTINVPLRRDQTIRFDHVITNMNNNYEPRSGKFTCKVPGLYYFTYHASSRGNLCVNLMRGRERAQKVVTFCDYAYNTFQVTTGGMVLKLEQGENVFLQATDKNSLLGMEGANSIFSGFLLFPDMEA
T6 sequence (P02747 29-245 limits assumed, chain 3 of 3): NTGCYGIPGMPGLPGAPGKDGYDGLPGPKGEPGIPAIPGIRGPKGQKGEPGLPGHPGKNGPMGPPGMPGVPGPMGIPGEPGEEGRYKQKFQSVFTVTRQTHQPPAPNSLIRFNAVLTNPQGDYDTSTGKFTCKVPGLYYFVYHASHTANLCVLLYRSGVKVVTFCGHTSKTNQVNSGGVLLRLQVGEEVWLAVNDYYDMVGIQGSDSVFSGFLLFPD
Source text for human CD14: Fresh human or porcine whole blood was drawn into tubes containing the anticoagulants lepirudin (Refludan; Pharmion, Copenhagen, Denmark) or EDTA, respectively. […] Endotoxin-free Dulbecco phosphate buffered saline, PBS (Sigma-Aldrich), was used for diluting the Abs. […] Their binding was detected either by using a secondary PEconjugated anti-mouse IgG or through direct FITC fluorescence. Erythrocytes were lysed using FACS Lysing solution (BD Biosciences, Franklin Lakes, N.J.; human blood) or a solution of 0.16 M ammonium chloride, 10 mM sodium bicarbonate, 0.12 mM EDTA (Tritiplex III) and 0.04% (v/v) paraformaldehyde (porcine blood). In subsequent flow cytometry analyses, human monocyte and porcine granulocyte populations were selected based on the forward scatter-side scatter dot plot, and CD14 binding was recorded as mean or median fluorescence intensity, respectively.

B1: 18D11 IgG1 F(ab')2 (Diatec) (other)
VH: EVQLVESGGGLMQPKGSLKLSCAASGFTFKTYALNWVRQAPGTGLEWVARIRSKSNNYTTYYADSVKDRFTISRDDSQNMLYLQMNNLKTEDTAMYYCVRPQSGTSFAYWGQGTLVTVSAA
VL: NIVLTQSPASLAVSLGQRATISCRASESVDSYGNSFMHWYQQKPGQPPKLLIYLASNLESGVPARFSGSGSRTDFTLTIDPVEADDVATYYCQQNNGDPYTFGGGTKLEIIR
notes: F(ab')2 fragment of the mouse IgG1 clone 18D11, bought; also called 18D11 F(ab)92; F(ab9)2 18D11
Turning to B1, the binding result with human CD14 is reported as “binds”.

B2: recombinant 18D11 (r18D11), recombinant anti-human CD14 IgG2/4 Ab (antibody)
heavy: EVQLVESGGGLMQPKGSLKLSCAASGFTFKTYALNWVRQAPGTGLEWVARIRSKSNNYTTYYADSVKDRFTISRDDSQNMLYLQMNNLKTEDTAMYYCVRPQSGTSFAYWGQGTLVTVSAASTKGPSVFPLAPCSRSTSESTAALGCLVKDYFPEPVTVSWNSGALTSGVHTFPAVLQSSGLYSLSSVVTVPSSNFGTQTYTCNVDHKPSNTKVDKTVERKCCVECPPCPAPPVAGPSVFLFPPKPKDTLMISRTPEVTCVVVDVSQEDPEVQFNWYVDGVEVHNAKTKPREEQFNSTYRVVSVLTVLHQDWLNGKEYKCKVSNKGLPSSIEKTISKAKGQPREPQVYTLPPSQEEMTKNQVSLTCLVKGFYPSDIAVEWESNGQPENNYKTTPPVLDSDGSFFLYSRLTVDKSRWQEGNVFSCSVMHEALHNHYTQKSLSLSLGK
light: NIVLTQSPASLAVSLGQRATISCRASESVDSYGNSFMHWYQQKPGQPPKLLIYLASNLESGVPARFSGSGSRTDFTLTIDPVEADDVATYYCQQNNGDPYTFGGGTKLEIIRTVAAPSVFIFPPSDEQLKSGTASVVCLLNNFYPREAKVQWKVDNALQSGNSQESVTEQDSKDSTYSLSSTLTLSKADYEKHKVYACEVTHQGLSSPVTKSFNRGEC
notes: Mouse/human chimera: murine variable regions, human IgG2/4 hybrid heavy constant region (CH1 and hinge from IgG2, CH2 and CH3 from IgG4), human kappa; Made in HEK293-EBNA cells; also called recombinant anti-human CD14 Ab
Take B2: the binding result in experiment [1], in experiment [2], in experiment [3], in experiment [4] and in experiment [5] was “no binding” each time.

B3: recombinant Mil2 (rMil2), recombinant anti-porcine CD14 IgG2/4 Ab (antibody)
heavy: QVRLQQPGAELVRPGASVKLSCKASGYTFTTYWMNWVKQRPEDGLEWIGRIDPYDSETHYNQNFKDKAILTVDKSSSTAYMQLSSLTYEDSAVYYCTRKEGRQWGAYFDYWGQGTTLTVSSASTKGPSVFPLAPCSRSTSESTAALGCLVKDYFPEPVTVSWNSGALTSGVHTFPAVLQSSGLYSLSSVVTVPSSNFGTQTYTCNVDHKPSNTKVDKTVERKCCVECPPCPAPPVAGPSVFLFPPKPKDTLMISRTPEVTCVVVDVSQEDPEVQFNWYVDGVEVHNAKTKPREEQFNSTYRVVSVLTVLHQDWLNGKEYKCKVSNKGLPSSIEKTISKAKGQPREPQVYTLPPSQEEMTKNQVSLTCLVKGFYPSDIAVEWESNGQPENNYKTTPPVLDSDGSFFLYSRLTVDKSRWQEGNVFSCSVMHEALHNHYTQKSLSLSLGK
light: DIVMTQSQKFMSTSVGDRVSVTCKASQYVGTNVAWYQQKPGQSPKALIQSASYRCSGVPDRFTGSGSGTDFTLTISNVQSEDLADYFCQQYNTYVTFGGGTKLELKRTVAAPSVFIFPPSDEQLKSGTASVVCLLNNFYPREAKVQWKVDNALQSGNSQESVTEQDSKDSTYSLSSTLTLSKADYEKHKVYACEVTHQGLSSPVTKSFNRGEC
notes: Mouse/human chimera with human IgG2/4 hybrid heavy constant region and human kappa
In the case of B3, the binding result in experiment [1], in experiment [2], in experiment [3], in experiment [4] and in experiment [5] was “no binding” in each case.
